Bridge positions count the residues as written; N and C are the ends. Square brackets hold non-standard residues; d marks the D form. Ends that are not written are not given here. Aib = CC(C)(N)C(=O)O
Experiments:
Format in all cases: cell-based
human GLP-1 receptor = biological target: T1, human GLP-1 receptor (Homo sapiens, UniProt P43220); test: In vitro cAMP activity in human GLP-1 receptor-expressing CHO cells (LANCE cAMP kit); conditions: long-acting conjugate; relative titer from cAMP EC50 compared to human GLP-1
T1 construct: expressed in transfected cells; host or cells: Chinese hamster ovary (CHO)
T1 sequence (P43220 24-463): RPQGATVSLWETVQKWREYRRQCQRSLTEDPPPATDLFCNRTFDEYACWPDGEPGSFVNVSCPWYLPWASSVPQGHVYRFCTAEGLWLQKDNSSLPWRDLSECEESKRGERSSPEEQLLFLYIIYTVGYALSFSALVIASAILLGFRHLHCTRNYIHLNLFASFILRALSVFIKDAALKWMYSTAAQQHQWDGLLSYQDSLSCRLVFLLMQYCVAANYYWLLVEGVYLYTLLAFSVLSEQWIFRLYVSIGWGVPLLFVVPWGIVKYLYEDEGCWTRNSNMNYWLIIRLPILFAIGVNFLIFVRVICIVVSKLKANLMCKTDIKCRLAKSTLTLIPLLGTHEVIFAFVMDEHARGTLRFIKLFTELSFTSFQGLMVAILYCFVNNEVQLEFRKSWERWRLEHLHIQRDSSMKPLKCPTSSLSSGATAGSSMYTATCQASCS
Description: (§1) In order to measure the activity of the triple agonists and long-acting conjugates thereof prepared according to Examples 1 and 2, the in-vitro cell activity was measured using cell lines transformed with GLP-1 receptor, glucagon (GCG) receptor, and GIP receptor, respectively.
(§2) The cell lines were transformed to express human GLP-1 receptor, human GCG receptor and human GIP receptor genes in Chinese hamster ovary (CHO), respectively, and are suitable for measuring the activities of GLP-1, GCG, and GIP. Therefore, the activity for each part was measured using each transformed cell line.
(§3) To measure the GLP-1 activity of the triple agonists and long-acting conjugates prepared according to Examples 1 and 2, human GLP-1 was diluted from 50 nM to 0.000048 nM by 4-fold serial dilution, and the triple agonists and long-acting conjugates thereof prepared according to Examples 1 and 2 were diluted from 400 nM to 0.00038 nM by 4-fold serial dilution. The culture medium was removed from the cultured human GLP-1 receptor-expressing CHO cells, 5 μl of each of the serially diluted materials was added to the cells, and then 5 μl of buffer containing cAMP antibody was added to the cells, followed by 15 minutes of incubation at room temperature. Then, cells were lysed by adding 10 μl of detection mix containing cell lysis buffer, and reacted at room temperature for 90 minutes. The cell lysate after the reaction had been completed, was applied to the LANCE cAMP kit (PerkinElmer, USA) to calculate the EC50 value through the accumulated cAMP, and then compared with each other.

human GCG receptor = biological target: T2, human GCG receptor (Homo sapiens, UniProt P47871); test: In vitro cAMP activity in human GCG receptor-expressing CHO cells (LANCE cAMP kit); conditions: for In vitro activity compared to native-type peptide (%) vs Glucagon: long-acting conjugate, relative titer from cAMP EC50 compared to human GCG; for activity on the glucagon receptor: in words
T2 construct: expressed in transfected cells; host or cells: Chinese hamster ovary (CHO)
T2 sequence (P47871 26-477): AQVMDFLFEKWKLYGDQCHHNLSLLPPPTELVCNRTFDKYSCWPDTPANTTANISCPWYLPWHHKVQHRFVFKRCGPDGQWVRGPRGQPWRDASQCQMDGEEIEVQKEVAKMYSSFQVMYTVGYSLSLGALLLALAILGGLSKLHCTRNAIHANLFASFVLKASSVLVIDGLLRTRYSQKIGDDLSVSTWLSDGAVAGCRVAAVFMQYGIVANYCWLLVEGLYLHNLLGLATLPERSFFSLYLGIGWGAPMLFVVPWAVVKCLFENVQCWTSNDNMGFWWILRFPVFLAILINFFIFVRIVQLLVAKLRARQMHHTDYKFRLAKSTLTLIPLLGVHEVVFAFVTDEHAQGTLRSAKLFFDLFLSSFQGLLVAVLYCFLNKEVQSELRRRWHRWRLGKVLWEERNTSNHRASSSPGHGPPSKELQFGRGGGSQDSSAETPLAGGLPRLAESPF
Description: as §1, §2
as §3, with “GCG” for “GLP-1”, “to” for “to 0.000048”

human GIP receptor = biological target: T3, human GIP receptor (Homo sapiens, UniProt P48546); test: In vitro cAMP activity in human GIP receptor-expressing CHO cells (LANCE cAMP kit); conditions: long-acting conjugate; relative titer from cAMP EC50 compared to human GIP
T3 construct: expressed in transfected cells; host or cells: Chinese hamster ovary (CHO)
T3 sequence (P48546 22-466): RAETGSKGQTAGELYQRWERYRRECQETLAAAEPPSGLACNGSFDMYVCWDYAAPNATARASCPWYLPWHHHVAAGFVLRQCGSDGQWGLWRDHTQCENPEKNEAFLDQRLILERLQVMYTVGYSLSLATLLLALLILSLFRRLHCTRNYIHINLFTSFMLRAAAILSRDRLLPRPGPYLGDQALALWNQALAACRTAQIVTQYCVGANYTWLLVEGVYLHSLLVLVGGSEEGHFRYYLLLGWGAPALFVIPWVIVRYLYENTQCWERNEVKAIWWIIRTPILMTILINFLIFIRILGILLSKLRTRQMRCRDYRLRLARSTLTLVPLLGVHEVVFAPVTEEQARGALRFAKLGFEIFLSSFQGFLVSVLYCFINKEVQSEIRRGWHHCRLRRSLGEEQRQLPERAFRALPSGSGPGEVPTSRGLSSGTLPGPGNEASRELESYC
Description: as §1, §2
as §3, with “measure the GIP activity of” for “measure the GLP-1 activity of”, “long-acting conjugates thereof prepared according” for “long-acting conjugates prepared according”, “2, human GIP was diluted” for “2, human GLP-1 was diluted”, “nM to […] by” for “nM to 0.000048 nM by”, “cultured human GIP receptor-expressing CHO” for “cultured human GLP-1 receptor-expressing CHO”

Substance: 21 (Y[Aib]QGTFTSDYSKYLDECRAKEFVQWLLDHHPSSGQPPPS; lactam 16-20) [compound 21]
- In vitro activity compared to native-type peptide (%) vs GLP-1 (human GLP-1 receptor): 0.1%
- In vitro activity compared to native-type peptide (%) vs Glucagon (human GCG receptor): 1.6%
- In vitro activity compared to native-type peptide (%) vs GIP (human GIP receptor): 0.2%

Substance: 22 (Y[Aib]QGTFTSDYSKCLDEKRAKEFVQWLLDHHPSSGQPPPS; lactam 16-20) [compound 22]
- In vitro activity compared to native-type peptide (%) vs GLP-1 (human GLP-1 receptor): 0.1%
- In vitro activity compared to native-type peptide (%) vs Glucagon (human GCG receptor): 0.9%
- In vitro activity compared to native-type peptide (%) vs GIP (human GIP receptor): 0.5%

Substance: 42 (Y[Aib]QGTFTSDYSKYLDEKRAKEFVQWLLDHHPSSGQPPPSC; lactam 16-20) [compound 42]
- In vitro activity compared to native-type peptide (%) vs GLP-1 (human GLP-1 receptor): 3.1%
- In vitro activity compared to native-type peptide (%) vs Glucagon (human GCG receptor): 23.1%
- In vitro activity compared to native-type peptide (%) vs GIP (human GIP receptor): 1.2%

Substance: 43 (Y[Aib]QGTFTSDYSKYLDEKRAKEFVQWLLDHHCSSGQPPPS; lactam 16-20) [compound 43]
- In vitro activity compared to native-type peptide (%) vs GLP-1 (human GLP-1 receptor): 2.1%
- In vitro activity compared to native-type peptide (%) vs Glucagon (human GCG receptor): 13.5%
- In vitro activity compared to native-type peptide (%) vs GIP (human GIP receptor): 0.6%

Substance: 50 (H[Aib]QGTFTSDYSKYLDEKRAKEFVQWLLDHHPSSGQPPPSC; lactam 16-20) [compound 50]
- In vitro activity compared to native-type peptide (%) vs GLP-1 (human GLP-1 receptor): 15.4%
- In vitro activity compared to native-type peptide (%) vs Glucagon (human GCG receptor): 6.9%
- In vitro activity compared to native-type peptide (%) vs GIP (human GIP receptor): 0.7%

Substance: 77 (Y[Aib]QGTFTSDYSKYLDEKAAKDFVQWLLDHHPSSGQPPPSC; lactam 16-20) [compound 77]
- In vitro activity compared to native-type peptide (%) vs GLP-1 (human GLP-1 receptor): 6.7%
- In vitro activity compared to native-type peptide (%) vs Glucagon (human GCG receptor): 1.7%
- In vitro activity compared to native-type peptide (%) vs GIP (human GIP receptor): 6.6%

Substance: 96 (Y[Aib]QGTFTSDYSKYLDEKRAKEFVQWLLDHCPSSGQPPPS; lactam 16-20) [compound 96]
- In vitro activity compared to native-type peptide (%) vs GLP-1 (human GLP-1 receptor): 0.3%
- In vitro activity compared to native-type peptide (%) vs Glucagon (human GCG receptor): 4.0%
- In vitro activity compared to native-type peptide (%) vs GIP (human GIP receptor): 0.3%

Substance: YXQGTFTSDYSKCLDEKRAKEFVQWLLDHHPSSGQPPPS (Y[Aib]QGTFTSDYSKCLDEKRAKEFVQWLLDHHPSSGQPPPS; lactam 16-20) [Sequence number 22]
- activity on the glucagon receptor (human GCG receptor): very high activity

Substance: YXQGTFTSDYSKYLDECRAKDFVQWLLDHHPSSGQPPPS (Y[Aib]QGTFTSDYSKYLDECRAKDFVQWLLDHHPSSGQPPPS; lactam 16-20) [Sequence number 66]
- activity on the glucagon receptor (human GCG receptor): very high activity

Substance: YXQGTFTSDYSKYLDECRAKEFVQWLLDHHPSSGQPPPS (Y[Aib]QGTFTSDYSKYLDECRAKEFVQWLLDHHPSSGQPPPS; lactam 16-20) [Sequence number 21]
- activity on the glucagon receptor (human GCG receptor): very high activity

Substance: YXQGTFTSDYSKYLDEKRAKEFVQWLLDCHPSSGQPPPS (Y[Aib]QGTFTSDYSKYLDEKRAKEFVQWLLDCHPSSGQPPPS; lactam 16-20) [Sequence number 97]
- activity on the glucagon receptor (human GCG receptor): very high activity

Substance: YXQGTFTSDYSKYLDEKRAKEFVQWLLDHCPSSGQPPPS (Y[Aib]QGTFTSDYSKYLDEKRAKEFVQWLLDHCPSSGQPPPS; lactam 16-20) [Sequence number 96]
- activity on the glucagon receptor (human GCG receptor): very high activity

Substance: YXQGTFTSDYSKYLDEKRAKEFVQWLLDHHCSSGQPPPS (Y[Aib]QGTFTSDYSKYLDEKRAKEFVQWLLDHHCSSGQPPPS; lactam 16-20) [Sequence number 43]
- activity on the glucagon receptor (human GCG receptor): very high activity

Substance: YXQGTFTSDYSKYLDEKRAKEFVQWLLDHHPSSGQPPPSC (Y[Aib]QGTFTSDYSKYLDEKRAKEFVQWLLDHHPSSGQPPPSC; lactam 16-20) [Sequence number 42]
- activity on the glucagon receptor (human GCG receptor): very high activity

Reference: patent publication US20230381333A1, “PHARMACEUTICAL COMPOSITION COMPRISING GLUCAGON/GLP-1/GIP TRIPLE AGONIST OR LONG-ACTING CONJUGATE THEREOF FOR PREVENTING OR TREATING VASCULITIS” (HANMI PHARM CO., LTD., priority 2020, published 2023)
